According to US20020002269A1, “ARTEMIN, A NEUROTROPHIC FACTOR” (priority 1998, published 2002):

Assays:
[1] = system: SH-SY5Y neuroblastoma cell line; assay: Differentiation of SH-SY5Y neuroblastoma cells; assay type: cell-based; details: 10 μM, three days after factor addition, FIG. 8B
Description: In one experiment, cells from the SH-SY5Y neuroblastoma cell line were plated at 2×10^5 cells/ml/well in 12-well tissue culture plates. After one day in culture cells were either left untreated (Cn) or stimulated with 50 ng/ml artemin (ART) or 10 μM retinoic acid (RA), a known inducer of differentiation of SH-SYSY cells. Three days after factor addition, differentiation was assessed and cells were photographed.

[2] = target: recombinant human artemin protein (human); assay: plate binding assay: ligand coated, soluble receptor body titrated, anti-human Fc-HRP, A450; apparent Kd
[3] = target: recombinant GDNF (human mature amino acid sequence) (human); assay: as above
[4] = target: recombinant neurturin (human mature amino acid sequence) (human); assay: as above
[5] = system: CHP126 neuroblastoma cell line; assay: Responsiveness of a neuroblastoma cell line that does not express RET (CHP126); assay type: cell-based; details: data not shown
GFRα2-Fc = assay: Direct binding of soluble GFRα2-Fc receptor body to plate-coated ligand; details: ligand coated at 325 ng/ml, absence of RET, FIG. 9D
Description: To investigate which if any of the known coreceptor(s) artemin can utilize to activate RET, its ability to directly bind to soluble Fc-fusion forms of GFRα1, GFRα2, or GFRα3 was assessed. GFRα1-Fc, GFRα2-Fc and GFRα3-Fc fusion proteins were obtained from R&D Systems. Binding assays were performed similarly to assays previously described (Sanicola et al., Proc. Natl. Acad. Sci., USA 94:6238-6243, 1997). Recombinant GDNF, neurturin, artemin, persephin, or purified bovine serum albumin (BSA; Pierce) were coated to Nunc-Immuno MaxiSorp microtiter plates at 325 ng/ml in TBS (10 mM Tris-HCl pH 7.5, 150 mM NaCl) for 1 hour at 25° C. Plates were washed (3× in TBS/0.03% Tween-20), and then blocked (blocking solution: TBS/1% BSA) for 1 hr at 25° C. Receptor bodies diluted in blocking solution were added and incubated for 2 hr at 25° C., washed 5X, then incubated with 1:10,000 dilution of HRP-conjugated anti-human Fc antibodies in blocking solution (Jackson Immunoresearch) for 45 minutes at 25° C. […] The reaction was stopped by adding an equal volume of 0.5M H2SO4, and color was measured in a plate reader at 450 nm. Non-specific binding of receptor bodies to the plates was measured in BSA coated wells, and this binding was subtracted from all other measurements.

[6] = system: dorsal root ganglion (DRG) neurons; assay: Survival of cultured dorsal root ganglion neurons; assay type: cell-based, rat; details: 50 ng/ml, 3 days in culture, FIG. 7A
Description: (§1) Each GDNF ligand family member consisted of the human mature amino acid sequence and was produced by standard recombinant DNA methods. Recombinant GDNF, neurturin and persephin were obtained from Genentech while recombinant artemin was produced as described in Example 3.
(§2) The cultures were performed using standard methods described elsewhere (Kotzbauer et al., Neuron 12:763-773, 1994; Kotzbauer et al., Nature 384:467-470, 1996; Milbrandt et al., Neuron 20:245-253, 1998). In brief, for SCG neurons, after dissection and dissociation, neurons were plated on collagen-coated 24-well tissue culture plates and maintained in NGF-containing medium (AM50) for 5 days, after which they were either kept in AM50 or switched to medium containing neutralizing anti-NGF antibodies plus GDNF, neurturin, persephin, artemin, (50 ng/ml where not noted otherwise), or no growth factors. Cultures were maintained for 3 days, after which they were fixed in 4% paraformaldehyde and stained with toluidine blue, and surviving neurons were counted. For nodose ganglion and dorsal root ganglion neuron cultures, dissociated neurons were plated directly into NGF (for dorsal root ganglia), or BDNF (for nodose ganglia, 100 ng/ml) or one of the GDNF ligands in serum-containing medium (AM50 with anti-NGF antibodies), and cells surviving after 3 days in culture were counted as above. Trigeminal ganglia were dissected, dissociated, and plated directly into medium containing NGF or the indicated GDNF ligands, and the number of surviving cells was assessed after 3 days in vitro. For all culture systems, 2-3 independent experiments were performed.

[7] = system: CHP134 neuroblastoma cell line; assay: Responsiveness of a neuroblastoma cell line that does not express RET (CHP134); assay type: cell-based; details: data not shown
[8] = system: SAN neuroblastoma cell line; assay: Responsiveness of a neuroblastoma cell line that does not express RET (SAN); assay type: cell-based; details: data not shown
[9] = system: nodose ganglion (NG) neurons; assay: Survival of cultured nodose ganglion neurons; assay type: cell-based, rat; details: FIG. 7D
Description: as §1, §2

GFRα1-Fc = assay: Direct binding of soluble GFRα1-Fc receptor body to plate-coated ligand; details: ligand coated at 325 ng/ml, absence of RET, FIG. 9C
Description: To investigate which if any of the known coreceptor(s) artemin can utilize to activate RET, its ability to directly bind to soluble Fc-fusion forms of GFRα1, GFRα2, or GFRα3 was assessed. GFRα1-Fc, GFRα2-Fc and GFRα3-Fc fusion proteins were obtained from R&D Systems. Binding assays were performed similarly to assays previously described (Sanicola et al., Proc. Natl. Acad. Sci., USA 94:6238-6243, 1997). Recombinant GDNF, neurturin, artemin, persephin, or purified bovine serum albumin (BSA; Pierce) were coated to Nunc-Immuno MaxiSorp microtiter plates at 325 ng/ml in TBS (10 mM Tris-HCl pH 7.5, 150 mM NaCl) for 1 hour at 25° C. Plates were washed (3× in TBS/0.03% Tween-20), and then blocked (blocking solution: TBS/1% BSA) for 1 hr at 25° C. Receptor bodies diluted in blocking solution were added and incubated for 2 hr at 25° C., washed 5X, then incubated with 1:10,000 dilution of HRP-conjugated anti-human Fc antibodies in blocking solution (Jackson Immunoresearch) for 45 minutes at 25° C. Finally, wells were washed 5× and the presence of HRP was assayed by addition of the chromogenic substrate 3,3, 5,5-tetramethylbenzidine for 5 min. The reaction was stopped by adding an equal volume of 0.5M H2SO4, and color was measured in a plate reader at 450 nm. Non-specific binding of receptor bodies to the plates was measured in BSA coated wells, and this binding was subtracted from all other measurements.

[10] = system: trigeminal ganglion (TG) neurons; assay: Survival of cultured trigeminal ganglion neurons; assay type: cell-based, rat; details: 50 ng/ml, 3 days in vitro, FIG. 7C
Description: as §1, §2

[11] = system: NBL-S neuroblastoma cell line; assay: BrdU cell proliferation assay in NBL-S neuroblastoma cells; assay type: cell-based; details: 50 ng/mL, 30 hrs after factor addition, FIG. 8D
Description: In another experiment, the ability of artemin to induce proliferation of the NBL-S neuroblastoma cell line was examined. NBL-S cells were plated at 5×10^4 cells/well on 48-well plates in standard medium, either without treatment or in the presence of 50 ng/mL of GDNF, artemin, or persephin. Actively dividing cells undergoing DNA synthesis 30 hrs after factor addition were detected using the BrdU (colorimetric) cell proliferation assay kit according to the manufacturer's instructions (Boehringer-Mannheim) and the data are shown in FIG. 8D.

CC1=C(/C=C/C(C)=C/C=C/C(C)=C/C(=O)O)C(C)(C)CCC1 [retinoic acid, all-trans retinoic acid, reference compound]
differentiation (neurite outgrowth, neuronal morphology) of SH-SY5Y cells [1]: induced strong differentiation responses

GFRα3-Fc fusion protein
Kd [2]: 3 nM

GFRα1-Fc fusion protein
Kd [3]: 3 nM | Kd [4]: 3 nM

GFRα2-Fc fusion protein
Kd [4]: 3 nM

B1: neurturin: recombinant human mature neurturin obtained from Genentech (protein, UniProt Q99748 96-197, looked up)
Neurturin: ARLGARPCGLRELEVRVSELGLGYASDETVLFRYCAGACEAAARVYDLGLRRLRQRRRLRRERVRAQPCCRPTAYEDEVSFLDAHSRYHTVHELSARECACV
response of CHP126 cells [5]: did not respond | direct binding of GFRα2-Fc (GFRα2-Fc): bound to neurturin | survival of DRG sensory neurons [6]: supported the survival of a subset of sensory neurons | response of CHP134 cells [7]: did not respond | response of SAN cells [8]: did not respond | survival of NG neurons ([9]; 50 ng/ml, 3 days in culture): supported similar numbers of NG neurons | survival promotion of NG neurons compared with BDNF ([9]; GDNF family ligands 50 ng/ml, BDNF 100 ng/ml): equal or greater survival promotion than BDNF | direct binding of GFRα1-Fc (GFRα1-Fc): able to bind to both GDNF and neurturin with similar affinity | survival of TG sensory neurons [10]: supported the survival of a subset of sensory neurons

B2: persephin: recombinant human mature persephin obtained from Genentech (protein, UniProt O60542 22-156, looked up)
Persephin: WGPDARGVPVADGEFSSEQVAKAGGTWLGTHRPLARLRRALSGPCQLWSLTLSVAELGLGYASEEKVIFRYCAGSCPRGARTQHGLALARLQGQGRAHGGPCCRPTRYTDVAFLDDRHRWQRLPQLSAAACGCGG
proliferation of NBL-S cells (BrdU incorporation) [11]: did not | direct binding of GFRα1-Fc (GFRα1-Fc): not to persephin or artemin
